Results as given in patent US10357573B2, “Block copolymer conjugate of physiologically active substance” (Nippon Kayaku Kabushiki Kaisha, priority 2015, dated 2019).

Legend:
[1] = Light scattering intensity of 1 mg/mL aqueous solution, relative to toluene; assay type: physicochemical
Procedure: Regarding the measurement sample for the scattering intensity measurement, a solution obtained by adding ultrapure water to a physiologically active substance-conjugated block copolymer to obtain a concentration of 1 mg/mL, dissolving the block copolymer by irradiating the mixture with ultrasonic waves for 10 minutes under ice cooling, and then filtering the solution through a 0.2-μm membrane filter, was used.
Toluene (manufactured by Junsei Chemical Co., Ltd., special grade) that was used for the measurement of the light scattering intensity, was used after being filtered three times through a 0.2-μm membrane filter.

[2] = Test Example C-1 intrarenal distribution test; assay type: in vivo, nude mouse; conditions: 5 mg/kg as converted to 2-(2-aminoethoxy)-9-(diethylamino)-5H-benzo[a]phenoxazin-5-one, iv once, one hour after administration
Excerpt: (§1) A tumor mass of human pancreatic cancer BxPC3 that had been subcultured by subcutaneous transplantation in a BALB/c nude mouse was cut into a block having a size of about 3 mm on each side, and this block was subcutaneously transplanted on the dorsal side of a nude mouse using a trocar. […] One hour after the administration, blood was removed from the mouse under isoflurane anesthesia, frozen embedded slices of the removed tumor and the kidneys were produced, and fluorescence was observed.

[3] = test system: human pancreatic cancer BxPC3; assay: Test Example C-1 intratumor distribution test; assay type: in vivo, nude mouse; conditions: 5 mg/kg as converted to 2-(2-aminoethoxy)-9-(diethylamino)-5H-benzo[a]phenoxazin-5-one, iv once, one hour after administration
Excerpt: as §1

[4] = test system: human colorectal cancer Col-5-JCK and Co-3-KIST, human breast cancer MC-19-JCK; conditions: 75 or 50 mg/kg as converted to Ganetespib, iv once, compared to Comparative Example B-1
Procedure: The tumor volume was determined by measuring the major axis (L: mm) and the minor axis (W: mm) of the tumor, and calculating the volume by the calculation formula: (L×W^2)/2.

[5] = Test Example A-2 intrarenal distribution test; assay type: in vivo, C.B-17SCID mouse; conditions: 50 mg/kg as converted to 7-ethyl-10-hydroxycamptothecin, iv once, 30 minutes after administration
[6] = test system: human pancreatic cancer BxPC3; assay: Test Example A-1 intratumor distribution test; assay type: in vivo, nude mouse; conditions: 50 mg/kg as converted to 7-ethyl-10-hydroxycamptothecin, iv once, 30 minutes after administration
Excerpt: Thirty minutes after the administration, blood was removed from the mouse under isoflurane anesthesia, frozen embedded slices of the removed tumor were produced, and fluorescence was observed.

In the case of “2-(2-aminoethoxy)-9-(diethylamino)-5H-benzo[a]phenoxazin-5-one Conjugate of polyethylene glycol (2 Kilodaltons)-α,β-polyaspartic Acid (12.5 Polymer) Block Copolymer [Comparative Example C-3]”, the “relative ratio between the light scattering intensity and the light scattering intensity of toluene” value ([1]; 1 mg/mL aqueous solution vs standard toluene solution under the same conditions) is reported as “less than twice”, the “self-association in aqueous solution” value ([1]; aqueous solution) is reported as “non-associating” and the “tissue distribution in kidney slices (fluorescence)” value [2] is reported as “fluorescence was observed in the renal tubules”. The “tissue distribution in tumor slices (fluorescence)” value (“tissue distribution in tumor slices” below) [3] was “migration and accumulation in the tumor tissue was low”.

For “4-isopropyl-6-(4-(1-methyl-1H-indol-5-yl)-5-methylene-4,5-dihydro-1H-1,2,4-triazol-3-yl)benzene-1,3-diol Conjugate of polyethylene glycol (2 Kilodaltons)-polyglutamic Acid (7.9 Polymer) Block Copolymer [Example B-1]”, the “antitumor effect” value [4] was “superior effect in both subcutaneous tumor models at the same dose”.

In the case of “7-ethyl-10-hydroxycamptothecin (EHC) and 2-(2-aminoethoxy)-9-(diethylamino)-5H-benzo[a]phenoxazin-5-one Conjugate of polyethylene glycol (2 Kilodaltons)-polyglutamic Acid (7.6 Polymer) Block Copolymer [Example A-4]”, the “tissue distribution in kidney slices (fluorescence)” value [5] is reported as “fluorescent signals were observed in the blood vessels and the renal tubules of the kidneys” and the “tissue distribution in tumor slices” value [6] is reported as “could penetrate into deep parts of a tumor tissue”.

For “7-ethyl-10-hydroxycamptothecin (EHC) and 2-(2-aminoethoxy)-9-(diethylamino)-5H-benzo[a]phenoxazin-5-one Conjugate of polyethylene glycol (12 Kilodaltons)-polyglutamic Acid (25 Polymer) Block Copolymer [Comparative Example A-4, reference compound]”, the “tissue distribution in kidney slices (fluorescence)” value [5] was “fluorescence was not recognized in areas other than the blood vessels of the kidneys” and the “tissue distribution in tumor slices” value [6] was “did not penetrate into deep parts of the tumor tissue”.
